Data taken from patent US20250092140A1 (published 2025).

T1: human-NKP30-His (human, UniProt O14931 19-138)
T1 chain: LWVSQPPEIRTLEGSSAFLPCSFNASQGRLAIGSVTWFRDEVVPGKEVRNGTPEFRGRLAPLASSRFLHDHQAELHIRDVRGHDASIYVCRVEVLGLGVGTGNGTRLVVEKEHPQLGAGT

T2: HuB7H3-Fc (human, UniProt Q5ZPR3 29-245)
T2 chain: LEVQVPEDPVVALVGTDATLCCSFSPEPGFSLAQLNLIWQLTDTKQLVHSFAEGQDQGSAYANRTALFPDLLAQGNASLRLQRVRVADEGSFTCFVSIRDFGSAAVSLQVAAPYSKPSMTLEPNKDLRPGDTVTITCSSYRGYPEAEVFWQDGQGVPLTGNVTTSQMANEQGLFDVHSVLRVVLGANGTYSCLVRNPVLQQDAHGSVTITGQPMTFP

T3: HuB7H3-his (human, UniProt Q5ZPR3 29-245)
T3 chain: T2 chain

B1: NKP30 monoclonal antibody (antibody, V domains shown)
VH: EVQLVESGGGLVQPGGSLRLSCAASGITFSRSVMGWFRQAPGKLRELVAGITSDDNTDYADSVKGRFTISRDNSKNTLYLQMNSLRAEDTAVYYCNILPDSRLGWGQGTLVTVSS
B2: constructed antibody D28 (bispecific antibody)
heavy: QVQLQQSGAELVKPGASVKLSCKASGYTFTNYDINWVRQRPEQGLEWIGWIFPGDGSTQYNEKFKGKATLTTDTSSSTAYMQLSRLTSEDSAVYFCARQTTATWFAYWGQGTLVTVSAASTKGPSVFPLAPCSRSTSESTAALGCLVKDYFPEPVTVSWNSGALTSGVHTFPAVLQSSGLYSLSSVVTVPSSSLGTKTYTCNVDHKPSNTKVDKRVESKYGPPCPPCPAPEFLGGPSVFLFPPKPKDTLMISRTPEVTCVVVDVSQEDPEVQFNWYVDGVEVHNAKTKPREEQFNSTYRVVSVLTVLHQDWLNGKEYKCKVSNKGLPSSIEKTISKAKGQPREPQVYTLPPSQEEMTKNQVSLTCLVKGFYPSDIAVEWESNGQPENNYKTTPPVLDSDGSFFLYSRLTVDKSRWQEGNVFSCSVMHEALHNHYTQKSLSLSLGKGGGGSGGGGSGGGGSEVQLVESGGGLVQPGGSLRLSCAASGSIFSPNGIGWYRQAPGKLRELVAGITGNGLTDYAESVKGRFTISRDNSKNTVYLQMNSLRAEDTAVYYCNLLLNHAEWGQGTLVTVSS
light: DIVMTQSPATLSVTPGDRVSLSCRASQSISDYLHWYQQKSHESPRLLIKYASQSISGIPSRFSGSGSGSDFTLSINSVEPEDVGVYYCQNGHSFPLTFGAGTKLELKRTVAAPSVFIFPPSDEQLKSGTASVVCLLNNFYPREAKVQWKVDNALQSGNSQESVTEQDSKDSTYSLSSTLTLSKADYEKHKVYACEVTHQGLSSPVTKSFNRGEC
B3: constructed antibody A25 (bispecific antibody)
heavy: not shown
light: B2 light

Assays:
human-NKP30-His = biological target: T1, human-NKP30-His; assay: ELISA
HuB7H3-Fc = biological target: T2, HuB7H3-Fc; assay: sandwich ELISA; dual binding, HuB7H3-Fc coated, NKP30-his detected
HuB7H3-his = biological target: T3, HuB7H3-his; assay: ELISA

Binder | EC50 (human-NKP30-His) [µg/mL] | EC50 (HuB7H3-Fc) [µg/mL] | EC50 (HuB7H3-his) [µg/mL]
B1 | 0.00258 |  | 
B2 |  | 0.445 | 
B3 | 0.00817 | 0.19 | 0.0526
